In PMC7748142:

Molecular target: T1, peroxiredoxin 1 (PRDX1), murine lung fibroblasts (mouse (endogenous in MLFs)), P35700
T1 chain: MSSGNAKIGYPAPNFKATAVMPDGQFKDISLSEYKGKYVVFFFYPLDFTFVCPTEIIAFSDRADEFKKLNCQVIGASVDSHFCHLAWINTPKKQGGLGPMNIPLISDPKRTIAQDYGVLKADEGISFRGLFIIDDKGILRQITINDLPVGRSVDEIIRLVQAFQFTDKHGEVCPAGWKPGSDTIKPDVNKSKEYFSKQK
Assay: non-reducing SDS-PAGE with Western blot; A549 or MLF cells treated with Auranofin (A549: 10 uM, MLF: 2 uM) alone or with KU55933 (10 uM, 1 h pre-treatment); lysed in CHAPS buffer with 100 mM NEM; boiled in non-reducing sample buffer; disulfide-linked dimers
Conditions: remark: other sources report otherwise

B1: peroxiredoxin 1 (PRDX1), murine lung fibroblasts, P35700 1-199 (enzyme)
chain: MSSGNAKIGYPAPNFKATAVMPDGQFKDISLSEYKGKYVVFFFYPLDFTFVCPTEIIAFSDRADEFKKLNCQVIGASVDSHFCHLAWINTPKKQGGLGPMNIPLISDPKRTIAQDYGVLKADEGISFRGLFIIDDKGILRQITINDLPVGRSVDEIIRLVQAFQFTDKHGEVCPAGWKPGSDTIKPDVNKSKEYFSKQK
- stoichiometry N: 2
